Experimental findings from publication PMC2676423 (Molecular immunology, 2009) are described below.

For data set [1], the target named is feline CD134 (OX40) expressed on MCC cells (feline). The data set can be described thus: flow cytometry on cells. On the technique in general: In flow cytometry, cells or beads pass a laser one at a time.
The target of data set [2] is native, endogenously expressed feline CD134 on MYA-1 T cells (feline (endogenous in MYA-1)). The data set can be described thus: flow cytometry on cells.
Data set [3] has as its target Fc-TNC-fCD134L (chicken | feline) (UniProt P10039). Description: non-reducing SDS-PAGE with immunoblot.
Data set [4] addresses human CD134 (OX40) expressed on MCC cells (human) (UniProt P43489). The data set can be described thus: flow cytometry on cells.
Data set [5] concerns the molecule itself. The data set can be described thus: non-reducing SDS-PAGE with immunoblot. A general note: In western blotting, separated proteins are transferred to a membrane and probed.

Where “and” joins values, the source holds several entries; their conditions need not be identical. Identical values can stand only once.

human CD134 (OX40) expressed on MCC cells (human), sequence (P43489 29-277): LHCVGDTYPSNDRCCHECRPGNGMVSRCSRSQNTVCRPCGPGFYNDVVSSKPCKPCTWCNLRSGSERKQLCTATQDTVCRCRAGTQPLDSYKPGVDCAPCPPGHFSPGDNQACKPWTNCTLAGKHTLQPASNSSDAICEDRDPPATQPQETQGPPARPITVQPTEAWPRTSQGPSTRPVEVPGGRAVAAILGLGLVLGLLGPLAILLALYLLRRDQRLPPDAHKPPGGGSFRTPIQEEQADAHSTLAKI

In the case of “FLAG-TNC-fCD134L (from UniProt P10039 110-139) (ligand)”, in data set [1], the mean fluorescence intensity (MFI) came to 5 and the percent of cells positive turned out to be 66.2%. Moreover, in data set [2], the mean fluorescence intensity (MFI) turned out to be 3 and the percent of cells positive was determined as 44.9%.
Consider “FLAG-mCD134L (FLAG-tagged murine CD134L) (from UniProt P43488 51-198) (ligand)”, for which the mean fluorescence intensity (MFI) in data set [1] stood at 309; in data set [2] it was 12. In addition, the percent of cells positive in data set [1] was found to be 99.7%; in data set [2], 86.5%.
Consider “Fc-TNC-fCD134L (from UniProt P10039 110-139) (Fc fusion)”, for which the stoichiometry N (as a rule, the number of molecules, sites or subunits per partner or assembly) in data set [3] came out at 6. Further, the mean fluorescence intensity (MFI) in data set [1] was 221; in data set [4], 9.9; in data set [2], 14. Besides, the percent of cells positive turned out to be 99.8% in data set [1], 45.5% in data set [4] and 82.4% in data set [2].
Take “Fc-TNC-mCD134L (from UniProt P10039 110-139; P43488 51-198) (Fc fusion)”: in data set [1], the mean fluorescence intensity (MFI) stood at 300 and the percent of cells positive is 99.8%. In data set [2], this molecule yielded a mean fluorescence intensity (MFI) of 7 and a percent of cells positive of 78.2%.

B1: Fc-TNC-hCD134L (Fc fusion, chicken | human)
chain: RSPQPQPKPQPKPEPEGSLHACGCAAAPDIKDLLSRLEELEGLVSSLREQGTGGGSGGRGLQVSHRYPRIQSIKVQFTEYKKEKGFILTSQKEDEIMKVQNNSVIINCDGFYLISLKGYFSQEVNISLHYQKDEEPLFQLKKVRSVNSLMVASLTYKDKVYLNVTTDNTSLDDFHVNGGELILIHQNPGEFCVL
Take B1: the “stoichiometry N” value in data set [5] is 2 and 6.

B2: Fc-TNC-mCD134L (Fc fusion, chicken | mouse)
chain: RSPQPQPKPQPKPEPEGSLHACGCAAAPDIKDLLSRLEELEGLVSSLREQGTGGGSGGRGLQSSSPAKDPPIQRLRGAVTRCEDGQLFISSYKNEYQTMEVQNNSVVIKCDGLYIIYLKGSFFQEVKIDLHFREDHNPISIPMLNDGRRIVFTVVASLAFKDKVYLTVNAPDTLCEHLQINDGELIVVQLTPGYCAPEGSYHSTVNQVPL
As to B2, the “stoichiometry N” value in data set [5] stood at 6.
